Data from the supplement of paper PMC10567573.

B1: CDC25A (parent)
chain: QLIDPDENKENEAFEFKKPVRPVS
B2: SPDEF (parent)
chain: YPEDSSWAAKAPGASSREEPPEEP

Variants of: B1
Experiment: protein stability index of a GFP-peptide fusion (GPS, HEK-293T) (PSI 1-6); higher = more stable
Settings: c terminus: a fixed tail appended
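Further: lentivirally expressed fusions sorted by FACS into six bins by GFP to DsRed ratio, PSI derived from sequencing read proportions per bin multiplied by bin number.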

Compared with QLIVPDENKENEAFEFKKPVRPVS, QLIGPDENKENEAFEFKKPVRPVS is higher in protein stability index: 3.44 for the first, 3.56 for the second.

Going from QLIDPDENKENEAFEFMKPVRPVS to QLIDPDENKENEAFEFGKPVRPVS, the protein stability index rises from 3.03 to 3.91.

Going from QLIDPDENKENEAFEFCKPVRPVS to QLIDPDENKENEAFEFLKPVRPVS, the protein stability index rises from 2.78 to 3.36.

First: QLIDPDENKENEAFEFKKPVRVVS
Second: QLIDPDENKENEAFEFKKPVRLVS
The protein stability index of the first is higher: 4.05 for the first, 3.45 for the second.

First: QLIDPDENKENEAFKFKKPVRPVS
Second: QLIDPDENKENEAFPFKKPVRPVS
The protein stability index of the first is higher: 4.3 for the first, 4.16 for the second.

First: QLIDPDENKENEAFLFKKPVRPVS
Second: QLIDPDENKENEAFQFKKPVRPVS
The protein stability index of the first is lower: 3.36 for the first, 4.08 for the second.

First: QLIDPDENKENEAFSFKKPVRPVS
Second: QLIDPDENKENEAFEFKKPVRPKS
The protein stability index of the first is higher: 4 for the first, 3.85 for the second.

Going from QLIDPDENKENEAFEFKKPVRPFS to QLIDPDENKENEAFEFKKPVRPNS, the protein stability index falls from 3.89 to 3.51.

Going from QLIDPDENKENEAFEFKKPVRPMS to QLIDPDENKENEAFEFKKPVRPVQ, the protein stability index rises from 2.46 to 4.25.

First: QLIDPDENKENEAFEFKKPVRPVD
Second: QLIDPDENKENEAFEFKKPVRPVP
The protein stability index of the first is higher: 5.24 for the first, 4.33 for the second.

First: QLIDPDENKENEAFEFKKPVRPVF
Second: QLIDPDENKENEAFEFKKPVRPVM
The protein stability index of the first is higher: 3.88 for the first, 3.49 for the second.

Going from QLIDPDENKENEAFEFKKPVRPVN to QLIDPDENKENEAFEFKKPVRPVA, the protein stability index rises from 3.34 to 4.16.

Going from QKIDPDENKENEAFEFKKPVRPVS to QPIDPDENKENEAFEFKKPVRPVS, the protein stability index rises from 4.29 to 5.03.

First: QNIDPDENKENEAFEFKKPVRPVS
Second: QIIDPDENKENEAFEFKKPVRPVS
The protein stability index of the first is higher: 4.58 for the first, 2.73 for the second.

In the case of QDIDPDENKENEAFEFKKPVRPVS, the protein stability index is reported as 4.51.

Variants of: B2
Experiment: as above
Settings: c terminus: a fixed tail appended

Going from YPEDSSWAAKAPGATSREEPPEEP to YPEDSSWAAKAPGAFSREEPPEEP, the protein stability index falls from 3.97 to 2.86.

First: YPEDSSWAAKAPGAVSREEPPEEP
Second: YPEDSSWAAKAPGASSPEEPPEEP
The protein stability index of the first is lower: 2.7 for the first, 3.85 for the second.

First: YPEDSSWAAKAPGASSNEEPPEEP
Second: YPEDSSWAAKAPGASSVEEPPEEP
The protein stability index of the first is lower: 4.14 for the first, 4.3 for the second.

First: YPEDSSWAAKAPGASSIEEPPEEP
Second: YCEDSSWAAKAPGASSREEPPEEP
The protein stability index of the first is higher: 4.85 for the first, 1.94 for the second.

Going from YGEDSSWAAKAPGASSREEPPEEP to YPEDSSVAAKAPGASSREEPPEEP, the protein stability index rises from 3.9 to 5.52.

First: YPEDSSEAAKAPGASSREEPPEEP
Second: YPEDSSNAAKAPGASSREEPPEEP
The protein stability index of the first is lower: 5.88 for the first, 5.91 for the second.

Going from YPEDSSWAAKAPGASSREEPPESP to YPEDSSWAAKAPGASSREEPPEFP, the protein stability index rises from 3.1 to 3.89.

Going from YPEDSSWAAKAPGASSREEPPEAP to YPEDSSWAAKAPGASSREEPPELP, the protein stability index falls from 4.06 to 3.45.

Going from YPEDSSWAKKAPGASSREEPPEEP to YPEDSSWADKAPGASSREEPPEEP, the protein stability index rises from 3.97 to 5.61.

Going from YPEDSSWAQKAPGASSREEPPEEP to YPEDSSWAAQAPGASSREEPPEEP, the protein stability index falls from 4.04 to 3.11.

Going from YPEDSSWAAKAPGASSRHEPPEEP to YPEDSSWAAKAPGQSSREEPPEEP, the protein stability index rises from 3.86 to 4.08.

First: YPEDSSWAAKAPGHSSREEPPEEP
Second: YPEDSSWNAKAPGASSREEPPEEP
The protein stability index of the first is lower: 3.77 for the first, 4.45 for the second.

First: YPEDNSWAAKAPGASSREEPPEEP
Second: YPEDVSWAAKAPGASSREEPPEEP
The protein stability index of the first is lower: 4.16 for the first, 4.71 for the second.

Going from YPEDRSWAAKAPGASSREEPPEEP to YPEDESWAAKAPGASSREEPPEEP, the protein stability index rises from 4.26 to 5.72.

First: YPEDCSWAAKAPGASSREEPPEEP
Second: YPEDQSWAAKAPGASSREEPPEEP
The protein stability index of the first is lower: 3.24 for the first, 4.03 for the second.

First: YPEDSHWAAKAPGASSREEPPEEP
Second: YPEDSFWAAKAPGASSREEPPEEP
The protein stability index of the first is higher: 4.38 for the first, 1.84 for the second.

Going from YPEDSSWAAKAIGASSREEPPEEP to YPEDSSWAAKAMGASSREEPPEEP, the protein stability index rises from 3.62 to 3.68.

Going from YPEDSSWAAKAPGASSREEKPEEP to YPEDSSWAAKAPGASSREEEPEEP, the protein stability index rises from 3.89 to 4.2.

First: YPEDSSWAAKAPGASSREEIPEEP
Second: YPEDSSWAAKAPGASSREDPPEEP
The protein stability index of the first is higher: 3.82 for the first, 3.37 for the second.

Going from YPEDSSWAAKAPGASSREMPPEEP to YPEDSSWAAKAPGASSREHPPEEP, the protein stability index falls from 4.07 to 3.12.

Going from YPEDSSWAAKAPGASSRETPPEEP to YPEDSSWAAKAPGASSREEPPEEC, the protein stability index falls from 4.49 to 4.4.

Compared with YPEDSSWAAKAPGASSREEPPEEH, YPEDSSWAAKAPGASSREEPAEEP is higher in protein stability index: 3.42 for the first, 3.63 for the second.

First: YPEDSSWAAKAPGASSREEPFEEP
Second: YPEDSSWAAKAPGASSREEPWEEP
The protein stability index of the first is higher: 3.76 for the first, 3.66 for the second.

Going from YPEDSSWAAKAPGASSREEPNEEP to YPEDSSWAAKAPGASSREEPLEEP, the protein stability index falls from 4.12 to 4.04.

First: YPEDSSWAAKAPGASSREEPEEEP
Second: YPEDSSWAAKAPGASSREEPYEEP
The protein stability index of the first is lower: 4.26 for the first, 4.3 for the second.

Going from YPQDSSWAAKAPGASSREEPPEEP to YPEDSSWAAKAPGASWREEPPEEP, the protein stability index rises from 3.24 to 3.71.

First: YPEDSSWAAKAPGASHREEPPEEP
Second: YPEDSSWAAKAPGASKREEPPEEP
The protein stability index of the first is lower: 3.92 for the first, 4.51 for the second.

Going from YPEDSSWAAKAPGASDREEPPEEP to YPEDSSWAAKAPGASSREEPPLEP, the protein stability index falls from 4.23 to 3.92.

Compared with YPEDSSWAAKAPGASSREEPPTEP, YPEDSSWAAKAPGASSREEPPGEP is lower in protein stability index: 4.31 for the first, 2.79 for the second.

First: YPEDSSWAAKAPFASSREEPPEEP
Second: YPEDSSWAAKAPLASSREEPPEEP
The protein stability index of the first is lower: 3.87 for the first, 4.09 for the second.

First: YPEDSSWAAKAPQASSREEPPEEP
Second: YPEDSSWAAKAPNASSREEPPEEP
The protein stability index of the first is lower: 4.07 for the first, 4.22 for the second.

Compared with YPEDSSWAAKAPTASSREEPPEEP, YPEDSSWAAKRPGASSREEPPEEP is higher in protein stability index: 3.91 for the first, 4.78 for the second.

In the case of YPEDSSWAAKGPGASSREEPPEEP, the protein stability index is reported as 3.68.
